According to the supplement of paper PMC9170038:

Test system: MS2 coat protein
Assay: apparent KD of MS2 coat protein; designed switch direction (-1 OFF switch, 1 ON switch): -1; higher = weaker reporter binding
Outline: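 Three titration conditions were used: no input, 200 uM small-molecule ligand, and an oligonucleotide input. In each, SNAP-549-labelled MS2 coat protein was raised from 0.7 or 1.5 nM, doubling, to 3 µM over designed RNA switches transcribed on Illumina chips by stalled E. coli RNA polymerase. Curve fits of normalised cluster fluorescence gave values whose per-design median over clusters is the apparent KD.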

[1] = input ligand: microRNA oligo, concentration not stated
[2] = Eterna round: R95, input ligand: microRNA oligo, concentration not stated
[3] = Eterna round: R95, input ligand: FMN 200 uM
[4] = Eterna round: R95, input ligand: none

Row | Sequence | apparent KD of MS2 coat protein (input ligand: FMN 200 uM) | apparent KD of MS2 coat protein (input ligand: none) | apparent KD of MS2 coat protein [1] | further results
1 | AUAUUAGCAGGAUAUAUCCGGGAUAACAUGAGGAUCACCCAUGUGACCGCUUGAUAUCCUAUAGAAGGGCUUUAUA [Mod of ViennaUCT 29 - Jieux - Exclusion 5] (Eterna round: R97, puzzle: Exclusion 5) | 0.0353 µM | 0.0206 µM |  | 
2 | AUAUUGUGAGGAUAUGAACUUAGUAUCGAAAGAUACUAAGUACAGAAGGCACAUGAGGAUCACCCAUGUUUCUC [Long static hairpin v2] (Eterna round: R97, puzzle: Exclusion 4) | 0.418 µM | 0.0857 µM |  | 
3 | AUCAGCUCGUGAGGAUAUACAUGCGUGCUUCGGCACGUAUGAUAGAUCACAUGAGGAUCACCCAUGUAGAAGGCACGAGCUGAU [ENG2/4-A3] (Eterna round: R96, puzzle: Exclusion NG 2) | 0.0151 µM | 0.0134 µM | 0.0121 µM | 
4 | AUCAGCUCGUGAGGAUAUAUUAACAUGAGGAUCACCCAUGUAAGAUCAGGCUUCGGCCAAUGUUAAUAGAAGGCACGAGCUGAU [ENG2/12-A2] (Eterna round: R96, puzzle: Exclusion NG 2) | 0.239 µM | 0.17 µM | 0.0563 µM | 
5 | AUCAGUCGAGGAUAUACGAUCGUGCUUCGGCACGUAAGAUCACAUGAGGAUCACCCAUGUAGAAGGCGACUGAU [Mod 8 - Jieux - Exclusion 2] (Eterna round: R97, puzzle: Exclusion 2) | 0.463 µM | 0.0304 µM |  | 
6 | AUCAUGUAAGGAUAUCUUACAUGUGACUUCGGUCACUGUUCAGAGAAGGUACAUGAGGAUCACCCAUGUAGAAC [Ex4-3: 45] (puzzle: Exclusion 4) |  |  |  | apparent KD of MS2 coat protein [2]: 0.0185 µM
7 | AUCCUACAUGAGGAUCACCCAUGUCAGGAUAUCCAAGAAAUCUGGCCGUAUCGGCCAGGGAGAAGGGACAUGGC [jl-ex1-4.66 ViennaUCT mod] (Eterna round: R97, puzzle: Exclusion 1) | 0.0856 µM | 0.0284 µM |  | 
8 | AUCCUGCGAGGAUAUACAUAAUUUUUUUCGUUUUGACUCGAACAUGAGGAUCACCCAUGUAGAAGGUGCUUCAC [JR_Ex2_Sub027] (Eterna round: R97, puzzle: Exclusion 2) | 0.121 µM | 0.0948 µM |  | 
9 | AUCGUGCAGCUUUGCUGUACGAGUACAUGAGGAUCACCCAUGUAGGAUAUGGUACGCAAAGCGUGCUAGAAGGAUAUGAGAUUA [Mat - Exclusion NG 3 - Mod of JL - D96] (Eterna round: R96, puzzle: Exclusion NG 3) | 0.0242 µM | 0.0288 µM | 0.0215 µM | 
10 | AUCGUGUCAGGAUAUUGAAGUUCCGGGCAGUCCACGGAGCUCGAGAAGGGACAUGAGGAUCACCCAUGUCUCAU [Eternabot (L1) Solution 84] (Eterna round: R97, puzzle: Exclusion 4) | 0.0214 µM | 0.0186 µM |  | 
11 | AUCUUGUCAGGAUAUCUGACAAGUGACGAAAGUCACAGUUCAGAGAAGGUACAUGAGGAUCACCCAUGUAGAAC [Ex4-3: 40] (puzzle: Exclusion 4) |  |  |  | apparent KD of MS2 coat protein [2]: 0.0191 µM
12 | AUGAGCAGACGGAGAUCCAACAUGAGGAUCACCCAUGUCUCAUAAGCUUUUUGUUCAUCUUAUUGUACCUUGGUGCU [Mat - Sensor v3 - turn-off var 1 - JL Mod - D22] (puzzle: Sensor v3, turn-off variant 1) |  |  |  | apparent KD of MS2 coat protein [3]: 0.0537 µM; apparent KD of MS2 coat protein [2]: 0.0126 µM; apparent KD of MS2 coat protein [4]: 0.0677 µM
13 | AUGCGACAUGAGGAUCACCCAUGUGAGGAUAUUCGAAUGCACAAUUCGGUGUGAUAGAGGAGAAGGCGCAGGUA [EX1 #19] (Eterna round: R97, puzzle: Exclusion 1) | 0.154 µM | 0.243 µM |  | 
14 | AUGGGUCCUCUCGGAGCGACAUGAGGAUCACCCAUGUGUGUUGAGGAUAUCCACUGCUAAGGACGGGAGAAGGCAGUGUACUGU [Ex NG3 #85] (Eterna round: R96, puzzle: Exclusion NG 3) | 0.0298 µM | 0.0329 µM | 0.0235 µM | 
15 | AUGGUACAUGAGGAUCACCCAUGUUAGGAUAUCGCGUGAGGUAAAACUUACACACACACGAGAAGGGACGACAU (puzzle: Exclusion 1) |  |  |  | apparent KD of MS2 coat protein [2]: 0.0551 µM
16 | AUGUAACAUGAGGAUCACCCAUGUGAGGAUAUGCGAAUGAAUGAAUGAAUGAAUGUUAGCAGAAGGCACAAGUA [Default title] (Eterna round: R97, puzzle: Exclusion 1) | 0.0596 µM | 0.0443 µM |  | 

Row | Sequence | apparent KD of MS2 coat protein (input ligand: FMN 200 uM) | apparent KD of MS2 coat protein (input ligand: none) | apparent KD of MS2 coat protein [1] | further results
17 | AUGUAGUAAGGAUAUAGAAAGAAGGAGUAAGAUAGAGAGUUCUAGAAGGUACAUGAGGAUCACCCAUGUUGGAG [JR_Exclu4_Sub081] (puzzle: Exclusion 4) |  |  |  | apparent KD of MS2 coat protein [2]: 0.0222 µM
18 | AUGUGGGUACGAAGGUGUAGAUUGAGCGUACGUUCUGGAACAUGAGGAUCACCCAUGUCGCUUUUUGCUCGUCUUAU [JR_SV3TOV2_Sub035] (puzzle: Sensor v3, turn-off variant 2) |  |  |  | apparent KD of MS2 coat protein [3]: 0.0251 µM; apparent KD of MS2 coat protein [2]: 0.0478 µM; apparent KD of MS2 coat protein [4]: 0.0241 µM
19 | AUGUUACAUGAGGAUCACCCAUGUGAGGAUAUGAGUCAGUCACGGUGACGUGGCUGACUCAGAAGGCACAAAGG [JL-ex1-4.38 salish99 mod] (Eterna round: R97, puzzle: Exclusion 1) | 0.754 µM | 0.18 µM |  | 
20 | AUGUUACUCUGAGGAUAUUGUUUAUUCUUCUCACAUGAGGAUCACCCAUGUUUCCAUGUUAACCGCAAGAAGGCAGUAUUGAUU [JR_ExcNG2_Sub030] (Eterna round: R96, puzzle: Exclusion NG 2) | 0.0761 µM | 0.0551 µM | 0.0491 µM | 
21 | AUUAAACAUGUAGGAUAUGCGUGGCGAAGCUAUGCAGAAGGACAUGAGGAUCACCCAUGUAAGAGCGUCUGCGUACAGAUGCAA [Mat - Exclusion NG 1 - Mod of JL - D85] (Eterna round: R96, puzzle: Exclusion NG 1) | 0.563 µM | 0.0615 µM | 0.0366 µM | 
22 | AUUAAAGACCGAGGAUAUCGAGGAAAUACCCUGCGAGAAGGCGGGUACUCGGACGAUUCGACAUGAGGAUCACCCAUGUGCACA [Atrivece] (Eterna round: R96, puzzle: Exclusion NG 1) | 0.0266 µM | 0.0259 µM | 0.0245 µM | 
23 | AUUAGCGUAGGAUAUUGAUACAUGUACAUGAGGAUCACCCAUGUGAGGUGAGUCUUCGAUUAAGAAGGGCGCAGAA [EX5 #39] (Eterna round: R97, puzzle: Exclusion 5) | 0.0826 µM | 1.21 µM |  | 
24 | AUUAUAAAGUCAGGAUAUCGGUUUAUAAUAUUACGAGAAGGGACAUGAGGAUCACCCAUGUAUUAACACUACUAUGUCAACUAA [1st Attempt] (Eterna round: R96, puzzle: Exclusion NG 1) |  |  | 0.0333 µM | 
25 | AUUAUAAAUGUAGGAUAUCUGCACGUUUAGUGCAGAGAAGGACAUGAGGAUCACCCAUGUAGAUCAAUAAUAAUUAAUUUAAUU [ENG1/5-B2] (Eterna round: R96, puzzle: Exclusion NG 1) | 0.146 µM | 0.0337 µM | 0.0291 µM | 
26 | AUUAUAACAUAGGAUAUCGAAUUUAUCAUUUAACGAGAAGGAUGAACAUGAGGAUCACCCAUGUGGUAUCAUGG [Mat - Exclusion 6 - JL Mod - D3] (puzzle: Exclusion 6) |  |  |  | apparent KD of MS2 coat protein [3]: 0.055 µM; apparent KD of MS2 coat protein [2]: 0.173 µM; apparent KD of MS2 coat protein [4]: 0.0335 µM
27 | AUUAUAUAGAUAGGAUAUUGAUUAUUAUUUUAACAUGAGGAUCACCCAUGUAGCCUUAUGUAUAACAAGAAGGAUCAUUUAUUA [Title] (Eterna round: R96, puzzle: Exclusion NG 2) |  |  | 0.137 µM | 
28 | AUUAUAUAGGAAGGAUAUAGAAUAUUAUUUUAACAUGAGGAUCACCCAUGUAACCUUAUGUGUAGCUAGAAGGUCCAUUUGUUA [Title] (Eterna round: R96, puzzle: Exclusion NG 2) |  |  | 0.221 µM | 
29 | AUUAUUUAAGUCAGGAUAUCGUAUUUAUUUAAAUACGAGAAGGGACAUGAGGAUCACCCAUGUAAUAAAUUUUU [JMFs Solution 3] (puzzle: Brourd's mod of Exclusion 4) |  |  |  | apparent KD of MS2 coat protein [2]: 0.0172 µM
30 | AUUCAACAUGAGGAUCACCCAUGUGAGGAUAUGCGAGUGUAGACUUCGGUUUGAUAGAGCAGAAGGCGCAGGUA [EX1 #12] (Eterna round: R97, puzzle: Exclusion 1) | 0.0359 µM | 0.0333 µM |  | 
31 | AUUCAGCGAGGAUAUACAGGUUCUGGGUGAGGCUCGGCGAGACAUGAGGAUCACCCAUGUAGAAGGUGCUAGCC [Rezalaes] (puzzle: Exclusion 2) |  |  |  | apparent KD of MS2 coat protein [2]: 0.277 µM
32 | AUUCUUCAUAUCACAUGAGGAUCACCCAUGUUAUUCAUCGCGUAGGAUAUCGAGAAUUUUAAAUACGAGAAGGACGAAUUGAUA [JR_ExcNG3_Sub071] (Eterna round: R96, puzzle: Exclusion NG 3) | 0.0351 µM | 0.0353 µM | 0.0318 µM | 
